Values belong to the binder of their own block, whether it stands above or below them.
Columns and labels:
[1] = biological target: T1, C-terminal IBP4 fragment (amino acids 157-258) (human, UniProt P22692 157-258); experiment: SPR (Biacore T100), mAb amine-coupled to C1 chip, CT-IBP4 injected, 1:1 fit, second surface assay 2
T1 construct: also called CT-IBP4; C-term IBP4
T1 sequence: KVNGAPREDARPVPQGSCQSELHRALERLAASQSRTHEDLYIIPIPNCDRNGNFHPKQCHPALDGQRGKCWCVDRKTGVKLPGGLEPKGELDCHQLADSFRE
Description: (§1) For this reason, anti-IBP4 antibodies were directly amine coupled using standard NHS/EDC coupling to a C1 sensor chip. Variant 5B3.G9 was coupled on two surfaces at 350 RU and the other at 150 RU. […] Antibodies were measured in a multi-cycle kinetic mode. Binding studies were performed in PBS buffer+0.05% P20+3 mM EDTA at 25 degrees C. CT-IBP4 was tested in a 3-fold concentration series up to 333 nM and injected at 100 uL/min for 3 minutes followed by a 10 minute dissociation phase. Surfaces were regenerated with 1/100 H3PO4 after each cycle. The antigen binding responses were processed by subtracting the signal from a reference surface with no antibody captured along with a buffer injection. The processed response data were globally fit to a simple 1:1 interaction using SCRUBBER (Biologic Software Pty Ltd). The antigen concentration series was tested three times over each surface, giving rise to the kinetic an affinity parameters summarized in the tables below.

[2] = biological target: T1, C-terminal IBP4 fragment (amino acids …); experiment: SPR (Biacore T100), mAb amine-coupled to C1 chip, CT-IBP4 injected, average
Description: as §1

[3] = biological target: T1, C-terminal IBP4 fragment (amino acids …); experiment: SPR (Biacore T100), mAb amine-coupled to C1 chip, CT-IBP4 injected, 1:1 fit, first surface assay 1
Description: as §1

[4] = biological target: T1, C-terminal IBP4 fragment (amino acids …); experiment: SPR (Biacore T100), mAb amine-coupled to C1 chip, CT-IBP4 injected, 1:1 fit, first surface assay 2
Description: as §1

[5] = biological target: T1, C-terminal IBP4 fragment (amino acids …); experiment: SPR (Biacore T100), mAb amine-coupled to C1 chip, CT-IBP4 injected, 1:1 fit, second surface assay 1
Description: as §1

[6] = biological target: T1, C-terminal IBP4 fragment (amino acids …); experiment: SPR (Biacore T100), mAb amine-coupled to C1 chip, CT-IBP4 injected, 1:1 fit, first surface assay 3
Description: as §1

[7] = biological target: T1, C-terminal IBP4 fragment (amino acids …); experiment: SPR (Biacore T100), mAb amine-coupled to C1 chip, CT-IBP4 injected, 1:1 fit, second surface assay 3
Description: as §1

[8] = biological target: T1, C-terminal IBP4 fragment (amino acids …); experiment: SPR (Biacore T100), mAb amine-coupled to C1 chip, CT-IBP4 injected, 1:1 fit, assay 2
Description: as §1

[9] = biological target: T1, C-terminal IBP4 fragment (amino acids …); experiment: SPR (Biacore T100), mAb amine-coupled to C1 chip, CT-IBP4 injected, 1:1 fit, assay 3
Description: as §1

[10] = biological target: T1, C-terminal IBP4 fragment (amino acids …); experiment: SPR (Biacore T100), mAb amine-coupled to C1 chip, CT-IBP4 injected, 1:1 fit, assay 1
Description: as §1

[11] = biological target: T2, human sex hormone-binding globulin (SHBG) (human, UniProt P04278 30-402, O-linked glycan at T36 (native glycosylated form)); experiment: SPR (Biacore T100), mAb captured on anti-mouse IgG, SHBG antigen injected, 1:1 fit, assay 2
T2 construct: Purified human SHBG, the SHBG antigen of the SPR runs, or SHBG in human serum; also called SHBG protein
T2 sequence: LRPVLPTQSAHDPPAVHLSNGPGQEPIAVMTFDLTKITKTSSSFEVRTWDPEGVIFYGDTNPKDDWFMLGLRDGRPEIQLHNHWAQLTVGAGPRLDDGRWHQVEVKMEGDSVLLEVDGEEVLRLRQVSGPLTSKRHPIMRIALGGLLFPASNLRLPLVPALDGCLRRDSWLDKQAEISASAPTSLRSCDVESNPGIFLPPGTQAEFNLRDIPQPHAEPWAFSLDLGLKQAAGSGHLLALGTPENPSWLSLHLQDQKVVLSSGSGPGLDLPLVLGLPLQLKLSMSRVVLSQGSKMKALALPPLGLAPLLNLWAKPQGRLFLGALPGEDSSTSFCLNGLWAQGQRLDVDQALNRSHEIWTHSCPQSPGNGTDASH
Description: (§2) Surface plasmon resonance experiments were performed on a BiacoreT100 to characterize the anti-SHBG and anti-IBP4 antibodies. Anti-mouse-IgG antibody was amine coupled to ˜500 RU on a C1 sensor chip using standard NHS/EDC activation. Test monoclonal antibodies were captured on the anti-mouse-IgG surfaces. The binding for the Sex Hormone Binding Globulin Antigen to anti-SHBG variant antibodies 4G10.F8 and 13C9.E5 were measured in a multi-cycle kinetic mode. Binding studies were performed in PBS buffer+0.05% P20+3 mM EDTA at 25 degrees C. SHBG was captured for 1 minute at 200 nM and regenerated with 1/100 H3PO4 after each cycle. SHBG was captured to similar densities on 2 different flow cells followed by an injection of the SHBG antigen in a 3-fold titration series up to 600 nM over the two surfaces. The responses were processed by subtracting the buffer injection to correct for drift. The data sets fit well to a simple 1:1 interaction model using SCRUBBER (Biologic Software Pty Ltd). The antigen concentration series was tested three times over each surface, giving rise to the kinetic an affinity parameters summarized below.

[12] = biological target: T2, human sex hormone-binding globulin …; experiment: SPR (Biacore T100), mAb captured on anti-mouse IgG, SHBG antigen injected, 1:1 fit, assay 3; assay 3
Description: as §2

[13] = biological target: T2, human sex hormone-binding globulin …; experiment: Biacore, hybridoma supernatant
[14] = biological target: T2, human sex hormone-binding globulin …; experiment: SPR (Biacore T100), mAb captured on anti-mouse IgG, SHBG antigen injected, average of 3 assays
Description: as §2

[15] = biological target: T2, human sex hormone-binding globulin …; experiment: SPR (Biacore T100), mAb captured on anti-mouse IgG, SHBG antigen injected, 1:1 fit, assay 3
Description: as §2

[16] = biological target: T2, human sex hormone-binding globulin …; experiment: SPR (Biacore T100), mAb captured on anti-mouse IgG, SHBG antigen injected, 1:1 fit, assay 1
Description: as §2

Kd [1]: 17.1 nM
koff [1]: 0.0035 s⁻¹
kon [1]: 204000 M⁻¹ s⁻¹
Kd [2]: 31 nM
koff [2]: 0.0041 s⁻¹
kon [2]: 150000 M⁻¹ s⁻¹
Kd [3]: 38.2 nM
koff [3]: 0.00447 s⁻¹
kon [3]: 117000 M⁻¹ s⁻¹
Kd [4]: 37 nM
koff [4]: 0.00419 s⁻¹
kon [4]: 113000 M⁻¹ s⁻¹
Kd [5]: 25.8 nM
koff [5]: 0.00404 s⁻¹
kon [5]: 157000 M⁻¹ s⁻¹
Kd [6]: 43.1 nM
koff [6]: 0.00466 s⁻¹
kon [6]: 108000 M⁻¹ s⁻¹
Kd [7]: 22.3 nM
koff [7]: 0.00392 s⁻¹
kon [7]: 176000 M⁻¹ s⁻¹
B1: anti-IBP4 antibody clone variant 5B3.G9 (antibody, mouse IgG1, kappa)
heavy: EVQLQQSGPELVKPGASAKISCKASGYTFTDYYMNWVKQSHGKSLEWIGDINPNNGGSAYNQKFKGKATLTVDKSSSTAYMELRSLTSEDSAVYYCARWDGGFDYWGQGTTLTVSSAKTTPPSVYPLAPGSAAQTNSMVTLGCLVKGYFPEPVTVTWNSGSLSSGVHTFPAVLQSDLYTLSSSVTVPSSTWPSQTVTCNVAHPASSTKVDKKIVPRDCGCKPCICTVPEVSSVFIFPPKPKDVLTITLTPKVTCVVVDISKDDPEVQFSWFVDDVEVHTAQTKPREEQINSTFRSVSELPIMHQDWLNGKEFKCRVNSAAFPAPIEKTISKTKGRPKAPQVYTIPPPKEQMAKDKVSLTCMITNFFPEDITVEWQWNGQPAENYKNTQPIMDTDGSYFVYSKLNVQKSNWEAGNTFTCSVLHEGLHNHHTEKSLSHSPG
light: DIVMTQSQKFMSTSVRDRVSVTCKASQNVGTNVAWYQQKPGQSPKALIYSASYRYSGVPDRFTGSGSGTAFTLTISNVQSEDLAEYFCQQYNIYPLTFGAGTKLELKRADAAPTVSIFPPSSEQLTSGGASVVCFLNNFYPKDINVKWKIDGSERQNGVLNSWTDQDSKDSTYSMSSTLTLTKDEYERHNSYTCEATHKTSTSPIVKSFNRNEC
notes: Mouse monoclonal; variant form expressed in CHO cells; also called IBP4 (5B3.G9) V1; IBP4-5B3.G9

Kd [8]: 56.1 nM
koff [8]: 0.0119 s⁻¹
kon [8]: 211000 M⁻¹ s⁻¹
Kd [2]: 76 nM
koff [2]: 0.013 s⁻¹
kon [2]: 180000 M⁻¹ s⁻¹
Kd [9]: 75.9 nM
koff [9]: 0.0128 s⁻¹
kon [9]: 168000 M⁻¹ s⁻¹
Kd [10]: 96.2 nM
koff [10]: 0.0146 s⁻¹
kon [10]: 152000 M⁻¹ s⁻¹
B2: anti-IBP4 antibody clone variant 7D6.G4 (antibody, mouse IgG1, kappa, V domains shown)
VH: EVQLQQSGPELVKPGASVKISCKASGYTFTDYYMNWVKQSHGKSLEWIGDINPNNGGSAYNQKFKGKATLTVDKSSSTAYMELRSLTSEDSAVYYCARWDGGFDYWGQGTTLTVSS
VL: DIVMTQSQKFMSTSVRDRVSVTCKASQNVGTNVAWYQQKPGQSPKALIYSASYRYSGVPDRFTGSGSGTDFTLTISNVQSEDLAEYFCQQYNSYPLTFGAGTKLELKR
notes: Mouse monoclonal; variant form; also called IBP4 (7D6.G4) V2; IBP4-7D6.G4

Kd [11]: 1.91 nM
koff [11]: 8.37e-05 s⁻¹
kon [11]: 43900 M⁻¹ s⁻¹
koff [12]: 0.000145 s⁻¹
Kd [13]: 0.95 nM
koff [13]: 6.2e-05 s⁻¹
kon [13]: 65000 M⁻¹ s⁻¹
Kd [14]: 2 nM
koff [14]: 9e-05 s⁻¹
kon [14]: 42000 M⁻¹ s⁻¹
Kd [15]: 3.66 nM
kon [15]: 39600 M⁻¹ s⁻¹
Kd [16]: 1.05 nM
koff [16]: 4.57e-05 s⁻¹
kon [16]: 43700 M⁻¹ s⁻¹
B3: anti-SHBG antibody clone variant 4G10.F8 (antibody, mouse IgG2a, kappa)
heavy: QVQLQQPGAELVKPGASVKMSCKASGYTFTGYWMHWVKQRPGQGLEWIGVIDPSTGYTTYNEKFKGKATLTVDTSSNTAYMQLSSLTSEDSAVYYCTREPLVTADFEYWGQGTTLTVSSAKTTAPSVYPLAPVCGDTTGSSVTLGCLVKGYFPEPVTLTWNSGSLSSGVHTFPAVLQSDLYTLSSSVTVTSSTWPSQSITCNVAHPASSTKVDKKIEPRGPTIKPCPPCKCPAPNLLGGPSVFIFPPKIKDVLMISLSPIVTCVVVDVSEDDPDVQISWFVNNVEVHTAQTQTHREDYNSTLRVVSALPIQHQDWMSGKEFKCKVNNKDLPAPIERTISKPKGSVRAPQVYVLPPPEEEMTKKQVTLTCMVTDFMPEDIYVEWTNNGKTELNYKNTEPVLDSDGSYFMYSKLRVEKKNWVERNSYSCSVVHEGLHNHHTTKSFSRTPG
light: DIVMTQSQKFMSTSVGDRISVTCKASQNVDTNVAWYRQKPGQSPKALIYSASYRFSGVPDRFTGSGSGTDFTLTISTFQSEDLAEYFCQQYDSYPYTFGGGTKLEIKRADAAPTVSIFPPSSEQLTSGGASVVCFLNNFYPKDINVKWKIDGSERQNGVLNSWTDQDSKDSTYSMSSTLTLTKDEYERHNSYTCEATHKTSTSPIVKSFNRNEC
notes: Mouse monoclonal; variant form expressed from a standard backbone in CHO cells; also called SHBG (4G10.F8) Anti SHBG v1; SHBG #6
